Test results: patent US20060084596A1 (UNIVERSITY OF SOUTH FLORIDA, published 2006)
Values joined by “and” are separate entries in the source; they are usually repeats but may differ in a detail not shown here. Equal values may be shown once. Positions of bridges follow the written chain, without caps; N, C: chain ends. Non-standard residues stand in square brackets, D forms with d. No end group written: not given here. d2Nal = N[C@H](Cc1ccc2ccccc2c1)C(=O)O; dAbu = CC[C@@H](N)C(=O)O

Assays:
Test in all cases: cell-based or functional assay
[1] = target: platelet derived growth factor PDGF-BB (UniProt P01127 82-190)
platelet derived growth factor PDGF-BB, sequence (P01127 82-190 limits assumed): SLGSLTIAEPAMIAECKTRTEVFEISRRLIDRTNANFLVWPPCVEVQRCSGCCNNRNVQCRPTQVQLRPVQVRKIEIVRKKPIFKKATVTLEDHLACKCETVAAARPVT

[2] = target: acidic fibroblast growth factor (aFGF) (UniProt P05230 16-155, limits assumed)
acidic fibroblast growth factor (aFGF), sequence (P05230 16-155 limits assumed): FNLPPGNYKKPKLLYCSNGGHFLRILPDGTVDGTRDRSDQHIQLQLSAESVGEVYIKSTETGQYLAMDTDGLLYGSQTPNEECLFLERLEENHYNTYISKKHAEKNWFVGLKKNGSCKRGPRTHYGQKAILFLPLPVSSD

[3] = target: insulin-like growth factor-1 (IGF-1) (UniProt P05019 49-118)
insulin-like growth factor-1 (IGF-1), sequence (P05019 49-118 limits assumed): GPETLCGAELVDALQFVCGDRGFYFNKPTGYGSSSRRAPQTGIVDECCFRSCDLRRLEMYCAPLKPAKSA

[4] = target: vascular endothelial growth factor (VEGF) (UniProt P15692-4 27-191, limits assumed)
vascular endothelial growth factor (VEGF), sequence (P15692 other isoform, or with tags, fused parts or gaps limits assumed): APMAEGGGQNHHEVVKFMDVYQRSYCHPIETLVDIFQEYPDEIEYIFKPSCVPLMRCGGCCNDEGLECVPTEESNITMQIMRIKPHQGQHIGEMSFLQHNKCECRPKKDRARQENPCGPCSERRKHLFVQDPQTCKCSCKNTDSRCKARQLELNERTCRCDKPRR

Row | Binder | IC50, PDGFR-Y-P [1] | IC50, p42/Erk2 [1] | (IC50) Inhibition, p42 [2] | (IC50) Inhibition, p44 [2] | % Inhibition at 100 µM, p42 [3] | % Inhibition at 100 µM, p44 [3] | IC50, Flk-1-Y-P [4] | IC50, p42 [4] | IC50, p44 [4] | IC50, p42/Erk2: p42 [1] | IC50, p42/Erk2: p44 [1] | % Inhibition at 100 µM, IGF1R-Y-P [3] | (IC50) Inhibition, p42 (mean) [2] | (IC50) Inhibition, p44 (mean) [2]
1 | GDLD (designed binder, linker N-C via 3‑aminomethyl‑5‑aminobenzamide; also: four loops on But-Calix calix[4]arene scaffold) [GFB-109] | 7.5 µM | 15 µM | 68.3 µM per head; likely % | 79.7 µM per head; likely % | 68.3% | 79.7% |  |  |  |  |  |  |  | 
2 | GDGD (designed binder, linker N-C via 3‑aminomethyl‑5‑aminobenzamide; also: four loops on But-Calix calix[4]arene scaffold) [GFB-107] |  |  |  |  |  |  | < 10 µM | 100 µM | 100 µM |  |  |  |  | 
3 | GDDY (designed binder, linker N-C via 3‑aminomethyl‑5‑aminobenzamide; also: loops on DPM-2 scaffold) [GFB-130] |  |  | 78.9 µM per head; likely % | 78.9 µM per head; likely % |  |  |  |  |  |  |  |  |  | 
4 | GFB-135 (designed binder, also: 3 GDGY loops and 1 GDDD loop on But-Calix scaffold, linker to a chain's N/C-terminus via 3-aminomethyl-5-aminobenzamide) peptide 1: GDGY peptide 2: GDDD | 1.9 µM |  | 44.1 µM per head; likely % | 53.9 µM per head; likely % | 0.8% | 46.1% |  |  |  | 3.2 µM | 24 µM | 16.2% |  | 
5 | GDDD (designed binder, linker N-C via 3‑aminomethyl‑5‑aminobenzamide; also: four loops on But-Calix calix[4]arene scaffold) [GFB-106] | 8 µM | 33 µM |  |  |  |  | < 10 µM | < 10 µM | < 10 µM |  |  |  |  | 
6 | GDGY (designed binder, linker N-C via 3‑aminomethyl‑5‑aminobenzamide; also: loops on DPM-2 scaffold) [GFB-128] |  | > 50 µM |  | 43.3 µM per head; likely % | -6.1% | 38.2% |  |  |  |  |  | -12% |  | 
7 | GDGD (designed binder, linker N-C via 3‑aminomethyl‑5‑aminobenzamide; also: four loops on O3-Calix calix[4]arene scaffold) [GFB-104] |  |  |  |  |  |  |  |  |  |  |  | -28.4% |  | 
8 | [d2Nal]DGD (designed binder, linker N-C via 3‑aminomethyl‑5‑aminobenzamide; also: four loops joined to But-Calix calix[4]arene scaffold) [GFB-118] | 0.7 µM | 1.2 µM | 20.6 µM per head; likely % | 30.5 µM per head; likely % | 16.4% | 55.2% |  |  |  |  |  | 1.5% |  | 
9 | GFB-132 (designed binder, also: 3 GDGY loops and 1 GDDG loop on But-Calix scaffold, linker to a chain's N/C-terminus via 3-aminomethyl-5-aminobenzamide) peptide 1: GDGY peptide 2: GDDG | 0.4 µM |  |  | 50.2 µM per head; likely % |  |  |  |  |  | 2.9 µM |  |  |  | 
10 | PDGD (designed binder, linker N-C via 3‑aminomethyl‑5‑aminobenzamide; also: four loops on But-Calix scaffold) [GFB-119] | 20 µM | 32 µM | 62.6 µM per head; likely % and 72.1 µM per head; likely % and 47.8 µM per head; likely % | 78.9 µM per head; likely % and 81.7 µM per head; likely % and 58.1 µM per head; likely % | 29.7% | 66.2% |  |  |  |  |  | 16.7% | 60.8 µM per head; likely % | 72.9 µM per head; likely %
11 | GDFD (designed binder, linker N-C via 3‑aminomethyl‑5‑aminobenzamide; also: four loops on O4-Calix calix[4]arene scaffold) [GFB-102] |  |  |  |  |  |  |  | > 100 µM | > 100 µM |  |  |  |  | 
12 | GFGD (designed binder, linker N-C via 3‑aminomethyl‑5‑aminobenzamide; also: four loops on O4-Calix calix[4]arene scaffold) [GFB-101] | > 500 µM | > 500 µM |  |  |  |  | > 100 µM | > 100 µM | > 100 µM |  |  |  |  | 
13 | GDDY (designed binder, linker N-C via 3‑aminomethyl‑5‑aminobenzamide; also: four loops on But-Calix calix[4]arene scaffold) [GFB-122] | 1.7 µM | 19 µM | 57.3 µM per head; likely % | 71.6 µM per head; likely % |  |  |  |  |  |  |  |  |  | 
14 | GFB-134 (designed binder, also: 3 GDGY loops and 1 GDDY loop on But-Calix scaffold, linker to a chain's N/C-terminus via 3-aminomethyl-5-aminobenzamide) peptide 1: GDGY peptide 2: GDDY | 1.9 µM |  | 54.8 µM per head; likely % | 64.1 µM per head; likely % | 4.9% | 53.5% |  |  |  | 2.5 µM | 2.6 µM | 16.8% |  | 
15 | GFB-136 (designed binder, also: 3 GDDD loops and 1 GDGY loop on But-Calix scaffold, linker to a chain's N/C-terminus via 3-aminomethyl-5-aminobenzamide) peptide 1: GDDD peptide 2: GDGY | 3 µM |  | 73.1 µM per head; likely % | 84.5 µM per head; likely % | 15% | 59.5% |  |  |  | 25 µM | 24 µM | 40.6% |  | 
16 | GDGY (designed binder, linker N-C via 3‑aminomethyl‑5‑aminobenzamide; also: 3 GDGY loops on But-Calix scaffold, CO2H at fourth position) [GFB-133] |  |  |  | 101 µM per head; likely % |  |  |  |  |  | 3.2 µM | 3 µM |  |  | 
17 | GDND (designed binder, linker N-C via 3‑aminomethyl‑5‑aminobenzamide; also: four loops on But-Calix scaffold) [GFB-117] | 5.8 µM | 36 µM | 63.4 µM per head; likely % and 67.6 µM per head; likely % | 80.8 µM per head; likely % and 84.3 µM per head; likely % | 17.1% | 61.5% |  |  |  |  |  | 4.9% |  | 
18 | [dAbu]DGD (designed binder, linker N-C via 3‑aminomethyl‑5‑aminobenzamide; also: four loops joined to But-Calix calix[4]arene scaffold) [GFB-121] | 5.6 µM | 8.5 µM | 8.7 µM per head; likely % | 8.9 µM per head; likely % | 28.3% | 62.1% |  |  |  |  |  | 33.8% |  | 
19 | GDDD (designed binder, linker N-C via 3‑aminomethyl‑5‑aminobenzamide; also: loops on DPM-2 scaffold) [GFB-129] |  |  |  |  | 2.8% | 33.4% |  |  |  |  |  | 3.4% |  | 
20 | GDAD (designed binder, linker N-C via 3‑aminomethyl‑5‑aminobenzamide; also: four loops on But-Calix calix[4]arene scaffold) [GFB-110] | 1.7 µM | 7 µM | 76.1 µM per head; likely % and 93 µM per head; likely % | 85.2 µM per head; likely % and 98.9 µM per head; likely % |  |  |  |  |  |  |  |  |  | 
21 | GFB-137 (designed binder, not fully specified; also: linker to a chain's N/C-terminus via 3-aminomethyl-5-aminobenzamide) peptide 1: GDGY peptide 2: GDDG | 0.4 µM |  |  | 19.9 µM per head; likely % |  |  |  |  |  | 2.9 µM |  |  |  | 
